According to patent publication US5861491:

Columns and labels:
[1] = target: human serum albumin immobilized on Sepharose (human) (UniProt P02768); experiment: 125I-hLF retained on HSA-Sepharose, +0.2% Tween-20
[2] = target: human serum albumin immobilized on Sepharose (human) (UniProt P02768); experiment: 125I-hLF retained on HSA-Sepharose, +0.2% Tween-20 +0.5 M NaCl
[3] = target: human serum albumin immobilized on Sepharose (human) (UniProt P02768); experiment: 125I-hLF retained on HSA-Sepharose, 10 mM sodium phosphate, 0.15M NaCl, pH 7.4, no addition
[4] = target: human serum albumin immobilized on Sepharose (human) (UniProt P02768); experiment: 125I-hLF retained on HSA-Sepharose, +0.2% Tween-20 +0.1% Polybrene
[5] = target: human serum albumin immobilized on Sepharose (human) (UniProt P02768); experiment: 125I-hLF retained on HSA-Sepharose, +0.2% Tween-20 +2 M NaCl
[6] = target: human serum albumin immobilized on Sepharose (human) (UniProt P02768); experiment: 125I-hLF retained on HSA-Sepharose, +0.2% Tween-20 +0.25 M NaCl
[7] = target: caseins (casein fraction of whole bovine milk); experiment: co-sedimentation of bLF with the casein pellet of whole cow milk (centrifugation only, no addition), bLF read by competitive inhibition RIA

percentage binding [1] [%] | percentage binding [2] [%] | percentage binding [3] [%] | percentage binding [4] [%] | percentage binding [5] [%] | percentage binding [6] [%] | % of total bLF found in casein fraction [7] [%] | Substance
9 | 3 | 8 | 4 | 4 | 4 |  | 125I-labelled human lactoferrin (from UniProt P02788)
 |  |  |  |  |  | 21 | bovine lactoferrin (from UniProt P24627)
